Numbering of substitutions follows the chain as printed.
Assays:
[1] = molecular target: T1, endogenous human Tie1 (primary human endothelial cells, HUVEC, human tissue sections, SW480 cells) (human, UniProt P35590 25-1138); test: immunofluorescence, HDMEC
T1 construct: also called endogenous Tie1; HDMEC

[2] = molecular target: T2, V5-tagged full length human Tie1 expressed in COS1 cells (pcDNA3-Tie1-V5) (human, UniProt P35590 25-1138); test: Western blot, Tie1-V5-transfected COS1 cells
T2 construct: Cell lysates in Western blot and immunoprecipitation, fixed cells in immunofluorescence; also called Tie1-transfected; transfected Tie1
Procedure: (§1) COS1 cells were transfected with pcDNA3-Tie1-V5 (1 μg DNA per 10 cm cell culture plate) using FUGENE 6 (Roche) according to manufacturer's instruction and incubated for 48 h before stimulation. For immunoprecipitation, Tie1 transfected cells and HMVEC cells were lysed in DOC-RIPA lysis buffer (50 mM Tris-HCl pH 8.0, 150 mM NaCl, 1% Triton-X-100, 0.1% SDS, 1% DOC, 10 mM EDTA) supplemented with aprotinin, leupeptin, PMSF and sodium vanadate. Immunoprecipitation was carried out from equal amount of cell lysates by incubating with polyclonal anti-human Tie1 antibodies (R&D), monoclonal anti-V5 antibodies (Invitrogen) or altogether 23 anti-Tie1 antibodies (1 μg/ml) for 1 to 2 h followed by incubation with protein G-Sepharose (Amersham Pharmacia Biotech AB) for 1 h. The immunoprecipitates were washed twice with PBS-T and twice with PBS, followed by elution with the Laemmli buffer and separation in 8% SDS-PAGE. The blots were probed with the 23 anti-Tie1 antibodies (5 μg/ml) and subsequently anti-human Fc antibodies conjugated with HRP.
(§2) Next, to find out if the anti-Tie1 antibodies recognize Tie1 in living cells, those cells were studied by immunofluorescence staining.

[3] = molecular target: T1, endogenous human Tie1 (primary human …); test: Western blot, HDMEC; Western blot, HDMEC
Procedure: as §1, §2

T1 sequence (P35590 25-1138): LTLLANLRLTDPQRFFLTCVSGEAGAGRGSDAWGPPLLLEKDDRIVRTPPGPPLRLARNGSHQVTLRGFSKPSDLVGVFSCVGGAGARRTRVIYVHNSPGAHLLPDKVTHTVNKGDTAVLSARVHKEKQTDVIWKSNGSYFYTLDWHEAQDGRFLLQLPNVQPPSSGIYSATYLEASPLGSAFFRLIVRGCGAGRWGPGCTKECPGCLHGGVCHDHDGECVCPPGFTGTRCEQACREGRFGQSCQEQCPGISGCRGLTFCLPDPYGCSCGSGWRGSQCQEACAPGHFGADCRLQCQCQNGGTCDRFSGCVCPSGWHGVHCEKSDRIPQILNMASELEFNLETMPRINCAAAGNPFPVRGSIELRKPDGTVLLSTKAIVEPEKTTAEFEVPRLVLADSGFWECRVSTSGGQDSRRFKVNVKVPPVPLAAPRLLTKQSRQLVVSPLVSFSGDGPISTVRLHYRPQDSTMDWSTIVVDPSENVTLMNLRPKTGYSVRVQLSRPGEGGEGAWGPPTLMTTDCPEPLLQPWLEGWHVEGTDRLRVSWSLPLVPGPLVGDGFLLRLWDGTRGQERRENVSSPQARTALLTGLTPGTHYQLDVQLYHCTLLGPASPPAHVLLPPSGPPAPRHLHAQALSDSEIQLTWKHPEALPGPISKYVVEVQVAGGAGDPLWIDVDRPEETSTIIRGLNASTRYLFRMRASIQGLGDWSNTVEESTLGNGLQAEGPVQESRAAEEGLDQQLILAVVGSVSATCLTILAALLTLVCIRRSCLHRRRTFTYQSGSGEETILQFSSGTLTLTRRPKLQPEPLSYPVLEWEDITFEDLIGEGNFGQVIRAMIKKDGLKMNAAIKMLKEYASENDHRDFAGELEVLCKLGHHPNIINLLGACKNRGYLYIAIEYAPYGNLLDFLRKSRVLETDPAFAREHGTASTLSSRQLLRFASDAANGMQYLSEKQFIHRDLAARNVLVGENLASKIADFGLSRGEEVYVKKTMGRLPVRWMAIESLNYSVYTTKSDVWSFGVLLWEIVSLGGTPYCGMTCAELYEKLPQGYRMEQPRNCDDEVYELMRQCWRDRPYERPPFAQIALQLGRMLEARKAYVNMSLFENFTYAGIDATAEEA
T2 sequence (P35590 25-1138): as above

B1: anti-Tie1 antibody G2, IgG (antibody, V domains shown)
VH: EVQLLESGGGLVQPGGSLRLSCAASGFTFSSYKMGWVRQAPGRGLEWVSSIYPSGGWTHYADSVKGRFTISRDNSKNTLYLQMNSLRAEDTAVYYCARVLLHYFDYWGQGTLVTVSS
VL: QSVLTQPASVSGSPGQSITISCTGTSSDVGGYKYVSWYQQHPGKAPKLIISDVNNRPSGVSDRFSGSKSGNTASLTISGLQAEDDGDYYCSSYASSSYTSSTTWVFGG
notes: VL entry is lambda and stops within FR4
B1: binds [1]; binds [2].

B2: anti-Tie1 antibody s-B2, IgG (antibody, V domains shown)
VH: EVQLLESGGGLVQPGGSLRLSCAASGFTFSIYGMAWVRQAPGKGLEWVSVISPSGGQTFYADSVKGRFTISRDNSKNTLYLQMNSLRAEDTAVYYCARVYYYGMDVWGQGTTVTVSS
VL: DIQMTQSPATLSLSPGERATLSCRASQSVSSYLAWYQQKPGQAPRLLIYDASNRATGIPARFSGSGSETDFTLTISSLEPEDFAVYYCQQRSKWPRTFGQGTKLEIK
notes: VH entry is a raw phagemid read that runs into CH1
B2: binds [3]; binds [2].

B3: anti-Tie1 antibody s-D11, IgG (antibody, V domains shown)
VH: EVQLLESGGGLVQPGGSLRLSCAASGFTFSGYAMWWVRQAPGKGLEWVSSISPSGGATAYADSVKGRFTISRDNSKNTLYLQMNSLRAEDTAVYYCARDAGSYYWGWFDPWGQGTLVTVSS
VL: B2 VL with V29I, A43P, N53S, A55V, S67F, E68G, Q89L, K93S
notes: VH entry is a raw phagemid read that runs into CH1; also called Di1
B3: binds [3]; binds [2].

Reference: patent US20050136053A1 (DYAX, published 2005)
